The RNAGym collection of RNA variant scans (doi:10.7554/elife.80360)

B1: HDV Ribozyme (parent)
chain: GGCCGGCAUGGUCCCAGCCUCCUCGCUGGCGCCGGCUGGGCAACAUUCCGAGGGGACCGUCCCCUCGGUAAUGGCGAAUGGGACCCA

Variants of: B1
Test: self-cleavage, relative activity (ratio to wild type); higher = more cleavage; co-transcriptional

First: C21U G50A
Second: C21U G50C
The self-cleavage of the first is higher: 0.253 for the first, 0.115 for the second.

Compared with C21U C84U, C21U C84G is higher in self-cleavage: 0.0923 for the first, 0.122 for the second.

Compared with C21U C84A, C22G C61G is higher in self-cleavage: 0.0755 for the first, 0.104 for the second.

Compared with C22G C61U, C21G G38U is lower in self-cleavage: 0.0723 for the first, 0.0702 for the second.

Going from C21G G38A to C21U U65A, the self-cleavage rises from 0.0339 to 0.293.

Going from C22A G31U to C22A G31A, the self-cleavage rises from 0.0594 to 0.128.

Going from C22A G31C to C22G G54A, the self-cleavage rises from 0 to 0.101.

First: C22G G54C
Second: C21U C61G
The self-cleavage of the first is lower: 0.0277 for the first, 0.277 for the second.

Going from C21U C61U to C22A U27G, the self-cleavage falls from 0.319 to 0.151.

Going from C22A C64U to C22A C64A, the self-cleavage falls from 0.32 to 0.107.

Going from C22A C64G to C21U C62A, the self-cleavage falls from 0.302 to 0.214.

First: C21U U79C
Second: C21U U79G
The self-cleavage of the first is higher: 0.0573 for the first, 0.0426 for the second.

Going from C21U U37G to C21U C49A, the self-cleavage rises from 0.0875 to 0.291.

First: C21G G59A
Second: C21G G59U
The self-cleavage of the first is lower: 0.0594 for the first, 0.0941 for the second.

Compared with C21U G67C, C21G G53A is lower in self-cleavage: 0.205 for the first, 0.0511 for the second.

Going from C21G G53U to C22G G52C, the self-cleavage rises from 0.0248 to 0.0652.

First: C22A U47A
Second: C22A U47C
The self-cleavage of the first is higher: 0.208 for the first, 0 for the second.

Compared with C22A A70G, C22A A70C is lower in self-cleavage: 0.203 for the first, 0.17 for the second.

Going from C21G U47C to C21G U47G, the self-cleavage rises from 0 to 0.185.

Compared with C22G C84G, C22G C84A is lower in self-cleavage: 0.0923 for the first, 0.0369 for the second.

Going from C21G C86G to C21G C86A, the self-cleavage rises from 0.0369 to 0.0665.

Compared with C21G G81C, C21G G81U is higher in self-cleavage: 0.0504 for the first, 0.18 for the second.

Going from C21G G81A to C21U A83G, the self-cleavage rises from 0.0604 to 0.124.

First: C21U A83U
Second: C22G C48G
The self-cleavage of the first is higher: 0.162 for the first, 0.0489 for the second.

Going from C22G C62G to C22G C62A, the self-cleavage falls from 0.111 to 0.106.

Going from C21U G82C to C21U G82A, the self-cleavage falls from 0.181 to 0.0906.

Going from C21U G82U to C22G G38A, the self-cleavage falls from 0.115 to 0.0231.

Compared with C22G G38C, C22A G54U is lower in self-cleavage: 0.391 for the first, 0.317 for the second.

First: C22A G54C
Second: C22G C58A
The self-cleavage of the first is higher: 0.281 for the first, 0 for the second.

Compared with C22G C58G, C22G C58U is higher in self-cleavage: 0 for the first, 0.172 for the second.

Compared with C21U G80C, C22G A78G is lower in self-cleavage: 0.151 for the first, 0.141 for the second.

Going from C22G A78C to C22A C66U, the self-cleavage rises from 0.131 to 0.302.

Compared with C22A C66A, C21U C58A is lower in self-cleavage: 0.258 for the first, 0.136 for the second.

Compared with C21U C58U, C22G G34C is lower in self-cleavage: 0.203 for the first, 0.0811 for the second.

First: C22A A51U
Second: C22G C36A
The self-cleavage of the first is higher: 0.332 for the first, 0.0773 for the second.

Compared with C22G C36G, C22G A70G is higher in self-cleavage: 0.123 for the first, 0.185 for the second.

Going from C22G A70U to C21U C66U, the self-cleavage rises from 0.173 to 0.299.

First: C21U C66A
Second: C21G C58A
The self-cleavage of the first is higher: 0.153 for the first, 0.0396 for the second.

Going from C21G C58G to C21G C58U, the self-cleavage rises from 0 to 0.0314.

Going from C21G G74C to C22G A42C, the self-cleavage rises from 0.104 to 0.185.

Compared with C22G A42G, C21G U72A is higher in self-cleavage: 0 for the first, 0.0723 for the second.

First: C21U A70G
Second: C21U A70C
The self-cleavage of the first is lower: 0.271 for the first, 0.332 for the second.

Compared with C21U A70U, C21U C75U is lower in self-cleavage: 0.228 for the first, 0.0248 for the second.

Going from C21U C75A to C21U C75G, the self-cleavage rises from 0.0739 to 0.151.

Going from C22G C49A to C21U G38U, the self-cleavage rises from 0.131 to 0.135.

Going from C21U G38A to C21U G38C, the self-cleavage falls from 0.177 to 0.0923.

Compared with C21U G52A, C22G C32U is lower in self-cleavage: 0.24 for the first, 0.0707 for the second.

C22G C32A and C22G C32G are the same in self-cleavage: 0 for the first, 0 for the second.

Going from C22G C86G to C21G C84A, the self-cleavage rises from 0.0779 to 0.138.

Going from C21G G40C to C21G G40A, the self-cleavage falls from 0.0898 to 0.0346.

First: C22A A43C
Second: C22G C75U
The self-cleavage of the first is lower: 0.111 for the first, 0.16 for the second.

First: C22G C44G
Second: C22G C44U
The self-cleavage of the first is higher: 0.0437 for the first, 0.0361 for the second.

Going from C21G U23G to C21G U23C, the self-cleavage falls from 0.0755 to 0.0615.

Compared with C21G U23A, C22G G50U is lower in self-cleavage: 0.0536 for the first, 0.0297 for the second.

First: C22A A45C
Second: C22A A45U
The self-cleavage of the first is lower: 0.115 for the first, 0.233 for the second.

Compared with C21U G73U, C21U G73C is lower in self-cleavage: 0.145 for the first, 0.119 for the second.

First: C21G U37G
Second: C22G A87C
The self-cleavage of the first is higher: 0.166 for the first, 0.0866 for the second.

Going from C22G A87U to C21U C26U, the self-cleavage rises from 0.141 to 0.646.

First: C21U C32A
Second: C21U C32G
The self-cleavage of the first is higher: 0.0674 for the first, 0 for the second.

Compared with C22A G55A, C22A G81U is lower in self-cleavage: 0.284 for the first, 0.0536 for the second.

First: C22A G25A
Second: C22A G25U
The self-cleavage of the first is lower: 0.0369 for the first, 0.0755 for the second.

Going from C22G C24U to C22A G35A, the self-cleavage falls from 0.104 to 0.0386.

Compared with C22A G35U, C22A G35C is lower in self-cleavage: 0.0791 for the first, 0 for the second.

First: C22A G67A
Second: C21G G31A
The self-cleavage of the first is higher: 0.185 for the first, 0.18 for the second.

Going from C21U G59U to C21U G59C, the self-cleavage rises from 0.288 to 0.292.

Compared with C22A G50U, C22A G50C is higher in self-cleavage: 0.293 for the first, 0.354 for the second.

Going from C21G C61G to C21G C61A, the self-cleavage falls from 0.0386 to 0.

Compared with C22G A83U, C22A G52U is higher in self-cleavage: 0.0462 for the first, 0.32 for the second.

First: C22A G52A
Second: C22A G80C
The self-cleavage of the first is higher: 0.292 for the first, 0.229 for the second.

Going from C22A G80U to C22A C26G, the self-cleavage rises from 0.0408 to 0.119.

Going from C22A C26A to C22G C41U, the self-cleavage falls from 0.262 to 0.0656.

Going from C22G C57A to C22G C57G, the self-cleavage rises from 0.0652 to 0.219.

Compared with C22G C57U, C21G U27C is higher in self-cleavage: 0.089 for the first, 0.217 for the second.

First: C21U G35A
Second: C21U G35U
The self-cleavage of the first is higher: 0.108 for the first, 0.0804 for the second.

First: C21U G35C
Second: C21U G55U
The self-cleavage of the first is higher: 0.233 for the first, 0.17 for the second.

Going from C22G A77G to C22G A77U, the self-cleavage rises from 0.0504 to 0.162.

First: C21U G76C
Second: C21U A78G
The self-cleavage of the first is higher: 0.347 for the first, 0.155 for the second.

First: C21U G39U
Second: C21U G39A
The self-cleavage of the first is lower: 0.604 for the first, 0.993 for the second.

Compared with C21U C48A, C21U C48G is lower in self-cleavage: 0.302 for the first, 0.181 for the second.

First: C21U C48U
Second: C21G U69C
The self-cleavage of the first is higher: 0.247 for the first, 0.104 for the second.

Compared with C21G C66G, C21G C66A is higher in self-cleavage: 0 for the first, 0.0739 for the second.

Going from C21U C36A to C21U A87C, the self-cleavage rises from 0.0923 to 0.206.

Going from C21U A87G to C21U G40A, the self-cleavage rises from 0.165 to 0.538.

With C21U G40U the self-cleavage was 0.0764.
